Among the data in the supplement of paper PMC10567573 are protein stability index values, retold here.

A short description of the series: protein stability index of a GFP-peptide fusion (GPS, HEK-293T) (PSI 1-6); higher = more stable.
Setting [1] is: treatment: DMSO, c terminus: a fixed tail appended.
Where [2] appears, read: treatment: MLN4924 1 uM, 8 h, c terminus: a fixed tail appended.
Setting [3] is: treatment: DMSO, c terminus: native.
[4] abbreviates: treatment: MLN4924 1 uM, 8 h, c terminus: native.

± gives the standard deviation.
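Further: 24-mer peptide tiles fused after GFP, lentivirally expressed, FACS-sorted into six equal bins by GFP/DsRed ratio, decoded by Illumina sequencing, PSI is the read-weighted mean bin number.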

RTDEELQPPTTTVARSGTPAVENK [PLK2]: the protein stability index reads like this: under setting [1], 5.42 ± 0.6; under setting [2], 5.45 ± 0.27.
The matching figures for RTFLETSTDTAVTNEWEKRLSTSP [EPB41L3]: 4.17 ± 0.33 and 3.98 ± 0.2.
Take RTKSRTWAGEKSKREMYSRLKKL [CDC25A]: the protein stability index by setting is: under setting [3], 4.36 ± 0.32; under setting [4], 4.51 ± 0.38.
Turning to RTYGEPESAGPSRAVRQSVTSFPD [EMD], the protein stability index reads like this: under setting [1], 4.92 ± 0.24; under setting [2], 4.94 ± 0.14.
For the sequence RVLNSAKEKSSTVPIPTVNQYLYF [SOAT1], the protein stability index runs as follows: under setting [1], 2.29 ± 0.14; under setting [2], 2.47 ± 0.16.
As to RVMMASASDYFKAMFTGGMKEQDL [KLHL13], the protein stability index is, setting by setting: under setting [1], 2.91 ± 0.58; under setting [2], 2.82 ± 0.091.
In the case of RVRPLARVTSLANLISPVRNGAVR [NET1], the protein stability index is, setting by setting: under setting [1], 3.12 ± 0.17; under setting [2], 3.2 ± 0.41.
The matching figures for RYEQGRFWPHLKASNWSTTGFGQG [HDAC6]: 2.54 ± 0.28 and 2.6 ± 0.12.
For RYESLTDPSKLDSGKELKIDIIPN [HSP90AB1], the protein stability index reads like this: under setting [1], 4.33 ± 0.2; under setting [2], 4.31 ± 0.24.
Regarding SAPDTMKRYSMYLTPKGGVRTSYQ [TRIM29], the protein stability index runs as follows: under setting [1], 2.94 ± 0.21; under setting [2], 3.05 ± 0.16.
On to SAPEQELLVQDATPVSNSLLPEKA [GFOD1], for which the protein stability index reads like this: under setting [1], 5.29 ± 0.28; under setting [2], 5.4 ± 0.26.
SAPPTSRTSSGNVWVTHEEMETLE [PPFIA4] yielded a protein stability index under setting [1] of 5.12 ± 0.29 and a protein stability index under setting [2] of 4.88 ± 0.39.
SAQLQELVCHVMMGNLVMFRKDSV [INTS3]: the protein stability index is, setting by setting: under setting [1], 3.07 ± 0.38; under setting [2], 2.83 ± 0.37.
For the sequence SARYLSQCQEAEQARAELTAQHQR [FBF1], the protein stability index was 4.76 ± 0.28 under setting [1] and 4.57 ± 0.15 under setting [2].
Regarding SCFLINTADRIIRVYDGREILTCG [RBBP5], the protein stability index is, setting by setting: under setting [1], 1.91 ± 0.098; under setting [2], 1.91 ± 0.27.
For the sequence SCPEGDASECPQATNAKDSGCSSP [PPEF2], the protein stability index by setting is: under setting [1], 5.63 ± 0.34; under setting [2], 5.7 ± 0.27.
Consider SCSQSHCCSRYLCMGAMSLFLPCL [SPRY1], for which the protein stability index is 2.52 ± 0.44 under setting [1] and 2.5 ± 0.4 under setting [2].
In the case of SDASSHANAAKHTQDSARVNPQDG [EHMT1], the protein stability index is 5.27 ± 0.22 under setting [1] and 5.36 ± 0.21 under setting [2].
With SEADASHCIQQILEAVLHCHQMGV [CAMK2B], the protein stability index is, setting by setting: under setting [1], 2.48 ± 0.14; under setting [2], 2.67 ± 0.59.
SEAEEALYLIAKRNRKLKCTFSLT [SLC22A15] registered a protein stability index under setting [1] of 2.52 ± 0.15 and a protein stability index under setting [2] of 2.56 ± 0.12.
Consider SEASIASNLQAMSTQMFQTKRCFR [SMG5], for which the protein stability index amounted to 3.94 ± 0.13 under setting [1] and 4.08 ± 0.15 under setting [2].
The sequence SEIGTSDQIVPEYQEDSDISSFFC [TRIB1] yielded a protein stability index under setting [1] of 4.39 ± 0.47 and a protein stability index under setting [2] of 4.55 ± 0.36.
Take SEMWDIFLVRLLMAMAVMLYYSNF [MFSD9]: the protein stability index was 3.25 ± 0.38 under setting [1] and 3.36 ± 0.33 under setting [2].
In the case of SEPYKLLPGAVATIVKPLSAIPQP [HNF4A], the protein stability index was determined as 3.44 ± 0.3 under setting [1] and 3.59 ± 0.16 under setting [2].
With SERDKRPEGYNLKDEEGRLRDPAT [PPP2R2B], the protein stability index is, setting by setting: under setting [1], 5.6 ± 0.29; under setting [2], 5.4 ± 0.18.
As to SERPLDFLDLERPPTTPQNEEIRA [MFF], the protein stability index was 5.29 ± 0.39 under setting [1] and 5.55 ± 0.15 under setting [2].
With SFLNVTKSSLIWSYPAGSLTFPVR [TRIM43], the protein stability index reads like this: under setting [1], 1.89 ± 0.045; under setting [2], 2.17 ± 0.16.
With SGLQGLPECTRCGHGIVGTIVKAR [PDLIM4], the protein stability index under setting [1] came out at 2.51 ± 0.32 and the protein stability index under setting [2] stood at 2.64 ± 0.34.
In the case of SGRHPSHSTTPSGPGDEVARGIAG [ARFIP2], the protein stability index stood at 4.81 ± 0.13 under setting [1] and 4.62 ± 0.22 under setting [2].
Regarding SGSLITAGRIDREELCAQSARCVV [PCDHGA10], the protein stability index by setting is: under setting [1], 3.22 ± 0.4; under setting [2], 3.2 ± 0.29.
Take SGTVAAVLTLPFDVVKTQRQVALG [SLC25A39]: the protein stability index was determined as 2.15 ± 0.32 under setting [1] and 2.27 ± 0.3 under setting [2].
Turning to SHAWEVALGGLQSWRVGVVRVRQD [TRIM35], the protein stability index by setting is: under setting [1], 2.47 ± 0.26; under setting [2], 2.35 ± 0.36.
The matching figures for SHYFKIIEDLRAQIFANTVDNARI [KRT18]: 2.4 ± 0.44 and 2.07 ± 0.24.
In the case of SIDLGTAHSAAVTASGDCYTFGSN [NEK8], the protein stability index is, setting by setting: under setting [1], 3.79 ± 0.31; under setting [2], 4.06 ± 0.35.
SKESSKEKKLTVRQDLEDRYAEHV [C22orf31]: the protein stability index under setting [1] is 5.09 ± 0.27 and the protein stability index under setting [2] came to 5.16 ± 0.1.
Turning to SLDGKAIKVEQATKPSFESGRRGP [RBMX], the protein stability index worked out at 4.84 ± 0.4 under setting [1] and 4.94 ± 0.35 under setting [2].
In turn, SLEKLLASEPLPWDLRFRIIHETA [RIPK4] showed a protein stability index under setting [1] of 2.18 ± 0.33 and a protein stability index under setting [2] of 2.31 ± 0.33.
Sequence SLIGKGSFGQVVKAYDHQTQELVA [DYRK1B] returned a protein stability index under setting [1] of 3.56 ± 0.26 and a protein stability index under setting [2] of 3.59 ± 0.43.
In the case of SLMYRSPPGAEEPQAPPASRDEAA [RETREG3], the protein stability index is, setting by setting: under setting [1], 5.44 ± 0.22; under setting [2], 5.38 ± 0.26.
In turn, SNSRQLKWLSCGFMLEIVTPTSLS [FBXO33] registered a protein stability index under setting [1] of 3.39 ± 0.73 and a protein stability index under setting [2] of 2.83 ± 0.67.
For SPALSQGHVTGSKTTKDATGPDT [PSD2], the protein stability index is, setting by setting: under setting [3], 5.33 ± 0.28; under setting [4], 5.43 ± 0.23.
Consider SPASHVDVDLTIHGRHIDCPATWG [FOXJ1], for which the protein stability index by setting is: under setting [1], 3.14 ± 0.2; under setting [2], 3.28 ± 0.19.
The matching figures for SPMLIVFHGKYSTINPLWHIRHLG [GLT8D2]: 2.82 ± 0.44 and 2.47 ± 0.71.
In the case of SPMPYVKWMLGAEDLTPEDDMPIG [PTPRD], the protein stability index came to 4.3 ± 0.26 under setting [1] and 4.17 ± 0.48 under setting [2].
For the sequence SPPTRPVPGHRSERAIRTQPKQLI [SPRY1], the protein stability index was determined as 4.04 ± 0.37 under setting [1] and 4.05 ± 0.18 under setting [2].
Regarding SPSKTDGKELAGTMDGEGTLFQTE [PBXIP1], the protein stability index came to 5.31 ± 0.24 under setting [1] and 5.44 ± 0.3 under setting [2].
As for SPSPMSHGHYSMHCLHSAGHSQPD [DLX1], the protein stability index runs as follows: under setting [1], 3.82 ± 0.18; under setting [2], 3.91 ± 0.21.
For SRDRRRSSDRSRDSSHERTESQLT [BTBD10], the protein stability index is, setting by setting: under setting [1], 5.45 ± 0.32; under setting [2], 5.5 ± 0.22.
SRLGQGIGPIHLNEIQCTGNEKSI [LOXL2]: the protein stability index was determined as 4.42 ± 0.32 under setting [1] and 4.09 ± 0.18 under setting [2].
Take SRSNGSSPEARDARSPSGPSGSLE [TRIM29]: the protein stability index was 5.16 ± 0.17 under setting [1] and 5.29 ± 0.3 under setting [2].
SSDHLFLFGGFTTDKQPLSDAWTY [KLHDC2]: the protein stability index by setting is: under setting [1], 2.25 ± 0.61; under setting [2], 2.23 ± 0.063.
As to SSLSSESSESSDAGLCMDSPSPMD [CDC25B], the protein stability index came out at 5.462 ± 0.013 under setting [1] and 5.37 ± 0.23 under setting [2].
As for SSSASSSFSEEGAVGYSSDSETLD [NFE2L1], the protein stability index is 5.65 ± 0.13 under setting [1] and 5.655 ± 0.043 under setting [2].
STEVQAHPYSTTFQESASTPETRA [TEKT4]: the protein stability index turned out to be 5.23 ± 0.17 under setting [1] and 5.16 ± 0.1 under setting [2].
As for STHHGCEHICVNNGNSYICKCSEG [MATN2], the protein stability index is, setting by setting: under setting [1], 5.16 ± 0.27; under setting [2], 4.94 ± 0.23.
In the case of STLGTLQPPPAPPKKIMPEAHSHY [PPFIA4], the protein stability index under setting [1] was 4.02 ± 0.18 and the protein stability index under setting [2] amounted to 4.24 ± 0.1.
The matching figures for STLKEVKPTVFIGVPQIWEKIHEM [ACSBG2]: 2.1 ± 0.24 and 2.27 ± 0.31.
With STNDKTVKLWKVSERDKRPEGYNL [PPP2R2B], the protein stability index runs as follows: under setting [1], 3.93 ± 0.12; under setting [2], 4.19 ± 0.14.
With STSLLTSAGNRTHKARTRPKARKQ [ADAMTSL2], the protein stability index is, setting by setting: under setting [1], 4.89 ± 0.35; under setting [2], 4.92 ± 0.25.
As to SVGDPCGGAICGGPDHRLRLWRLF [SLC25A25], the protein stability index is 2.35 ± 0.59 under setting [1] and 2.62 ± 0.21 under setting [2].
As to SVPFSFDPNTAAGWLSVSDDLTSV [TRIM35], the protein stability index is, setting by setting: under setting [1], 3.42 ± 0.25; under setting [2], 3.52 ± 0.23.
As for SVVTEDGPEPKDKGSLPQPPITEV [ZNF232], the protein stability index is, setting by setting: under setting [1], 5.5 ± 0.2; under setting [2], 5.48 ± 0.18.
Regarding SVVTTARMQVLKRQVQSLMVHQRK [SMARCE1], the protein stability index runs as follows: under setting [1], 2.79 ± 0.14; under setting [2], 2.94 ± 0.27.
The matching figures for SWARPRPDEERPLRRPRPVQRTQS [RASAL3]: 4.46 ± 0.36 and 4.57 ± 0.26.
The matching figures for SYSTSEQAELSYKKVSEGPPLRLW [DLC1]: 2.73 ± 0.36 and 3.26 ± 0.18.
On to TADRIIRVYDGREILTCGRDGEPE [RBBP5], for which the protein stability index under setting [1] was 4.55 ± 0.12 and the protein stability index under setting [2] was 4.49 ± 0.31.
TAVAQAPPAVASSSLFDLSVLKLH [SERTAD1] had a protein stability index under setting [1] of 3.17 ± 0.061 and a protein stability index under setting [2] of 3.24 ± 0.2.
For TCTWKLPTLAKFSPYLGQMINLRR [PRAME], the protein stability index runs as follows: under setting [1], 2.28 ± 0.27; under setting [2], 1.89 ± 0.3.
In the case of TDNQVRLRKRKEIREDRDRARLDS [DLC1], the protein stability index by setting is: under setting [1], 5.18 ± 0.39; under setting [2], 5.07 ± 0.3.
Regarding TDQLEFTVEPRLLVADLLYWKDTR [RTN2], the protein stability index worked out at 2.43 ± 0.23 under setting [1] and 2.54 ± 0.33 under setting [2].
As for TEEVKFYQLGEEALLKFREDEGFV [KCNA4], the protein stability index by setting is: under setting [1], 4.16 ± 0.3; under setting [2], 4.3 ± 0.24.
Consider TERSPGPRLQELLGPSPQRDPQAV [ZNF263], for which the protein stability index runs as follows: under setting [1], 4.79 ± 0.2; under setting [2], 4.91 ± 0.35.
